Data reported in patent US20230301998A1 (SANFORD BURNHAM PREBYS MEDICAL DISCOVERY INSTITUTE, published 2023).

Assays:
Assay in all cases: Flag IP of Flag-SHARPIN from WM115 lysate, on-bead tryptic digestion, LC/MS-MS
VIM = biological target: T1, VIM (human, UniProt P08670 2-466)
T1 construct: endogenous protein co-purified from WM115 lysate
Outline: (§1)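 WM115 cells transfected with Flag-SHARPIN or empty plasmid; lysed in 1% Triton X-100 buffer (50 mM Tris-HCl pH7.4, 150 mM NaCl, 1 mM EDTA). Lysates pre-cleared 1 h at 4° C, immunoprecipitated on FLAG-M2 agarose overnight at 4° C, washed, then digested with trypsin on-bead for mass spectrometry.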

PKM = biological target: T2, PKM (human, UniProt P14618 2-531, limits assumed)
T2 construct: endogenous protein co-purified from WM115 lysate
Outline: as §1

HSPA5 = biological target: T3, HSPA5 (human, UniProt P11021 19-654)
T3 construct: endogenous protein co-purified from WM115 lysate
Outline: as §1

[1] = biological target: T4, PRMT5 (endogenous, WM115 cells) (human, UniProt O14744 2-637)
T4 construct: endogenous protein co-purified from WM115 lysate; also called Protein arginine methyltransferase 5
Outline: as §1

RNF31 = biological target: T5, RNF31 (human, UniProt Q96EP0 1-1072)
T5 construct: endogenous protein co-purified from WM115 lysate
T5 sequence (looked up): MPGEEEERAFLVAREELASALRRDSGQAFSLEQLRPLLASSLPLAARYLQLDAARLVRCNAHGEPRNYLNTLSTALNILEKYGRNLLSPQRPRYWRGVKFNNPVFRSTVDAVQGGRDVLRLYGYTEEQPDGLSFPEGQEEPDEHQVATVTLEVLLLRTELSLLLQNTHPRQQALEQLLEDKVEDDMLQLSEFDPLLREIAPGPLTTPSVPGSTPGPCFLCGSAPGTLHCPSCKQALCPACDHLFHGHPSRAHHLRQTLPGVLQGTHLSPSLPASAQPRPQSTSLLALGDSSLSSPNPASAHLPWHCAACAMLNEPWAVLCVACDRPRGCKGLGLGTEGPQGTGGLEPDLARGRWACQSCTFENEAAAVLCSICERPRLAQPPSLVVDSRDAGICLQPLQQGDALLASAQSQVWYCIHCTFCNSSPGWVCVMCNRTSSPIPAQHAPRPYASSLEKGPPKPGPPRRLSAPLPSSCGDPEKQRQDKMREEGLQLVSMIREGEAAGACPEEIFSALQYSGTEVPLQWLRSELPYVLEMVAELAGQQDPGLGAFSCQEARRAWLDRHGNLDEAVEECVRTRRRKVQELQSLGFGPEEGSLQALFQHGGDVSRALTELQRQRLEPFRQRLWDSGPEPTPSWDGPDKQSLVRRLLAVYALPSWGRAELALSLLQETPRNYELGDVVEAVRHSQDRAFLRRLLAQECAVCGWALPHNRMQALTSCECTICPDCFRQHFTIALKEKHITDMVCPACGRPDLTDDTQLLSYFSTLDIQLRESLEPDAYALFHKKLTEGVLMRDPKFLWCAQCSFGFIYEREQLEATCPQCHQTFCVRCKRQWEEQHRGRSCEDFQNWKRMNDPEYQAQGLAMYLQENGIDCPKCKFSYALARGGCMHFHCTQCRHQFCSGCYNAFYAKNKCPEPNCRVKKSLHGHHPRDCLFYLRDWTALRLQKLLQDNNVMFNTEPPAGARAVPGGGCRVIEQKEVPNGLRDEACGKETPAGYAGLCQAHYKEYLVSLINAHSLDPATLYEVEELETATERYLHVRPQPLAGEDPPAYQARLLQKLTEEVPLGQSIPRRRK
Outline: as §1

PRPF31 = biological target: T6, PRPF31 (human, UniProt Q8WWY3 1-499)
T6 sequence (looked up): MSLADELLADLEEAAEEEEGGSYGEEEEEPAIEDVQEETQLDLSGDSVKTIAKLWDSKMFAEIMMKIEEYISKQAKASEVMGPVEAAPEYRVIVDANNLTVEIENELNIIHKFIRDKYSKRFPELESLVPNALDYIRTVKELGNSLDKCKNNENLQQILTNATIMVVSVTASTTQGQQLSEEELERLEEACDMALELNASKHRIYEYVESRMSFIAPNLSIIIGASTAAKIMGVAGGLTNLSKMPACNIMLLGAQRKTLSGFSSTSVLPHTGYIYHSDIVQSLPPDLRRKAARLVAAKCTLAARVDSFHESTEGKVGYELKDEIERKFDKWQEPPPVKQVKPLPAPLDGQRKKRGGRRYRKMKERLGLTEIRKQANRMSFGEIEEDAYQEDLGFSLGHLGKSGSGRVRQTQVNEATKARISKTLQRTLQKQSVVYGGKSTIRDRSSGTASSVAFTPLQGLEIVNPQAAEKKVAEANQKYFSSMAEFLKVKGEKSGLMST
Outline: as §1

XRCC5 = biological target: T7, XRCC5 (human, UniProt P13010 2-732)
T7 construct: endogenous protein co-purified from WM115 lysate
Outline: as §1

PARP1 = biological target: T8, PARP1 (human, UniProt P09874 2-1014)
T8 construct: endogenous protein co-purified from WM115 lysate
Outline: as §1

MYH9 = biological target: T9, MYH9 (human, UniProt P35579 2-1960)
T9 construct: endogenous protein co-purified from WM115 lysate
Outline: as §1

T9 sequence (P35579 2-1960 limits assumed): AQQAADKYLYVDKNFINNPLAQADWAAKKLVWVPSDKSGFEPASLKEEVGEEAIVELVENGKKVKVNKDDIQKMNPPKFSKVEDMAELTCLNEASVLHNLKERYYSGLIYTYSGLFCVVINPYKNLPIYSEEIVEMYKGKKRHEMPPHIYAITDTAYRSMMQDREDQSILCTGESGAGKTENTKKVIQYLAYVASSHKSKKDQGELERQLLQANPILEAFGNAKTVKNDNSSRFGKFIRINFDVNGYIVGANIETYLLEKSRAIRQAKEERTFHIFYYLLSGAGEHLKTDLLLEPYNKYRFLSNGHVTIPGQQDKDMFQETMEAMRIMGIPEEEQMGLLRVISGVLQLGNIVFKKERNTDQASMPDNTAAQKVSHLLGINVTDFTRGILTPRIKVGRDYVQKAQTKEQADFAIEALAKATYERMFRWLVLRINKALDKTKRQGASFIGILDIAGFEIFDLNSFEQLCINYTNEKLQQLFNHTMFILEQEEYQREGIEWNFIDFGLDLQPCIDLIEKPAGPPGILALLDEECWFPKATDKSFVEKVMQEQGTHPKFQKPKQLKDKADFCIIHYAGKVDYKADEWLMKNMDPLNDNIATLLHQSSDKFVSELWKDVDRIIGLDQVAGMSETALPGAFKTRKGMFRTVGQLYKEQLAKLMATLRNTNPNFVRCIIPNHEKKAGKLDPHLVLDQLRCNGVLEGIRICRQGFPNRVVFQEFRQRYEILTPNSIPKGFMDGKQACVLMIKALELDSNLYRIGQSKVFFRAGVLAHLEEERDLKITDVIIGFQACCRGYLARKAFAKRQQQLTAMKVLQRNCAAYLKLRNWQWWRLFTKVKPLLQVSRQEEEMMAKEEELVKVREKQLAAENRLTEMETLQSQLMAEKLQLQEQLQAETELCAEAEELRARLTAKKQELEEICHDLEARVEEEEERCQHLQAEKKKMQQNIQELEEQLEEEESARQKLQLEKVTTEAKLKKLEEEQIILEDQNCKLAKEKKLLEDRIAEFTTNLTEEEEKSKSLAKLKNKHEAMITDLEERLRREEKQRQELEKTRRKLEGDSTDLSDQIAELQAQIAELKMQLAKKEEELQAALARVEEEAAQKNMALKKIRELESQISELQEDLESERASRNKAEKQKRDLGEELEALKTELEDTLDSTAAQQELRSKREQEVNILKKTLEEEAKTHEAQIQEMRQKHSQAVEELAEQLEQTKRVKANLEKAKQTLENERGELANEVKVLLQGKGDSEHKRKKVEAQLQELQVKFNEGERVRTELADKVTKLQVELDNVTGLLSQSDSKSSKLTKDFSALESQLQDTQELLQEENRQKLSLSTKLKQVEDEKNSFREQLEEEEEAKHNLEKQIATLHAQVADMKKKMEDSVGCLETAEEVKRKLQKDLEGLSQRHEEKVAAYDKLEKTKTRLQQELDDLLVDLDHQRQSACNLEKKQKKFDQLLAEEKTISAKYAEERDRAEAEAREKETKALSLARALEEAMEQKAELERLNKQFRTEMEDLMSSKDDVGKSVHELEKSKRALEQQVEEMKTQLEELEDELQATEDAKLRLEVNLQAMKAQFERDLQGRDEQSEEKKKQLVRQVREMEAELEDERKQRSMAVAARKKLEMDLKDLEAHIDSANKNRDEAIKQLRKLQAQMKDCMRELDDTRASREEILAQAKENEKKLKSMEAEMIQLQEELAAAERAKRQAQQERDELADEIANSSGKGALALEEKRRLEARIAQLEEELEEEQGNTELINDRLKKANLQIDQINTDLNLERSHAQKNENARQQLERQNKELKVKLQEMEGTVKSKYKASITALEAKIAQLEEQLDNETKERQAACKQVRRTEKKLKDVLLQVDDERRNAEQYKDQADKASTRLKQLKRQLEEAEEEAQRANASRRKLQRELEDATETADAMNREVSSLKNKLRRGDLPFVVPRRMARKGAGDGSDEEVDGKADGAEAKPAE
T8 sequence (P09874 2-1014 limits assumed): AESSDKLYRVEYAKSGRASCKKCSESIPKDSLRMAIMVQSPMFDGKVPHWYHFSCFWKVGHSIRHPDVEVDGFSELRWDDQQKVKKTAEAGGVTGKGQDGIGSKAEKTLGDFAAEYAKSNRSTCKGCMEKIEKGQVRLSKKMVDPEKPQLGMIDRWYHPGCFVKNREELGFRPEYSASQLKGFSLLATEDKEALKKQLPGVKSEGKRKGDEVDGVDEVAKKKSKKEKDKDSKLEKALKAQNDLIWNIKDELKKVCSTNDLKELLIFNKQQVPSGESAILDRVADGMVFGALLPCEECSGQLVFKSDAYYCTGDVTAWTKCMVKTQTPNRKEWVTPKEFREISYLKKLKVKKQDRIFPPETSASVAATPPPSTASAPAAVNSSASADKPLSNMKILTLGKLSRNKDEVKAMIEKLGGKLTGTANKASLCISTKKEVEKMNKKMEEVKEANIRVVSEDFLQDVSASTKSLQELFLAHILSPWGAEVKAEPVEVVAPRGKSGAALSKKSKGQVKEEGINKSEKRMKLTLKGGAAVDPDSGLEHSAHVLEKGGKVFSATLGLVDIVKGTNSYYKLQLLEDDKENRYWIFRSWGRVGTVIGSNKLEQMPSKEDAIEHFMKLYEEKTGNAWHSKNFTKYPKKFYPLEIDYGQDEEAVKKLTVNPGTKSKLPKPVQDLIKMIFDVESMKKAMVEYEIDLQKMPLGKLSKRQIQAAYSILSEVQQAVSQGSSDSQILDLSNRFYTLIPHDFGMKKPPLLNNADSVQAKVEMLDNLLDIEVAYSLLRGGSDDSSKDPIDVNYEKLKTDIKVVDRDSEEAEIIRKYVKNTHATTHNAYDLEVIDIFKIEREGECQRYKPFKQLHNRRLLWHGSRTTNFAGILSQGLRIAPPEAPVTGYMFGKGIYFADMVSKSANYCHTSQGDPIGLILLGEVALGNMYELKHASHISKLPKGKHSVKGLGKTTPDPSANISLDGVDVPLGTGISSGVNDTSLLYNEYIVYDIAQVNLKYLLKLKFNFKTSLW
T1 sequence (P08670 2-466 limits assumed): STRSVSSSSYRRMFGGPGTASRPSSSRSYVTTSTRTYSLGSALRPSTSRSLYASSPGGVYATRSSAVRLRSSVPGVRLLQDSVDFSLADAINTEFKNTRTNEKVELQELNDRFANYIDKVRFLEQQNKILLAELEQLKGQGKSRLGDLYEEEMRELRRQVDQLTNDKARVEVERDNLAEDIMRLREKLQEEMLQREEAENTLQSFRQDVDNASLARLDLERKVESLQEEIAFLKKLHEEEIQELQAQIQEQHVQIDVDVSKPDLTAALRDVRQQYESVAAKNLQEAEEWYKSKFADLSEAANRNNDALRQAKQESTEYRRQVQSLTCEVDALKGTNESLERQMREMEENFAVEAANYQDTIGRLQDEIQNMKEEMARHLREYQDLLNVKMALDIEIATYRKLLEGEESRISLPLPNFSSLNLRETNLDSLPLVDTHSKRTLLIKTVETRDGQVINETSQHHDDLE
T7 sequence (P13010 2-732 limits assumed): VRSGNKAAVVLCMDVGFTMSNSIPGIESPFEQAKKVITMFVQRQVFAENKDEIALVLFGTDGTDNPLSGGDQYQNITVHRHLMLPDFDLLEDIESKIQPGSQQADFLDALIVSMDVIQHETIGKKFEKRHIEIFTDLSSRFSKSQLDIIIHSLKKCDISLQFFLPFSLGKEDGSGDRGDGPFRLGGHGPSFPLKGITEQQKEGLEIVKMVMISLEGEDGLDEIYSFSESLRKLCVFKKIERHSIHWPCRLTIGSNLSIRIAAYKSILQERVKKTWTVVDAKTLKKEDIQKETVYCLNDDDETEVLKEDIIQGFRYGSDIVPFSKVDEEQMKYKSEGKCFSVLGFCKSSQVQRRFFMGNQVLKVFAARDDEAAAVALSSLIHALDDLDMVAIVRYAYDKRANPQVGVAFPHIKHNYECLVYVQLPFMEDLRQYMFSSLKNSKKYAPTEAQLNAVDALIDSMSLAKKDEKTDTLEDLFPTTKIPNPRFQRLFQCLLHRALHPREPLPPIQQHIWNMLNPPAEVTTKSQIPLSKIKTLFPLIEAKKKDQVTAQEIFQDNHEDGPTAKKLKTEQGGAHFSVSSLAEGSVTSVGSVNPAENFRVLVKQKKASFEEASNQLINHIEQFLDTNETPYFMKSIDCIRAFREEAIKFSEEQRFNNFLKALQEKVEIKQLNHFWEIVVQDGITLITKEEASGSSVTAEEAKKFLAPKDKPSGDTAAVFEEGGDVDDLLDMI
T2 sequence (P14618 2-531 limits assumed): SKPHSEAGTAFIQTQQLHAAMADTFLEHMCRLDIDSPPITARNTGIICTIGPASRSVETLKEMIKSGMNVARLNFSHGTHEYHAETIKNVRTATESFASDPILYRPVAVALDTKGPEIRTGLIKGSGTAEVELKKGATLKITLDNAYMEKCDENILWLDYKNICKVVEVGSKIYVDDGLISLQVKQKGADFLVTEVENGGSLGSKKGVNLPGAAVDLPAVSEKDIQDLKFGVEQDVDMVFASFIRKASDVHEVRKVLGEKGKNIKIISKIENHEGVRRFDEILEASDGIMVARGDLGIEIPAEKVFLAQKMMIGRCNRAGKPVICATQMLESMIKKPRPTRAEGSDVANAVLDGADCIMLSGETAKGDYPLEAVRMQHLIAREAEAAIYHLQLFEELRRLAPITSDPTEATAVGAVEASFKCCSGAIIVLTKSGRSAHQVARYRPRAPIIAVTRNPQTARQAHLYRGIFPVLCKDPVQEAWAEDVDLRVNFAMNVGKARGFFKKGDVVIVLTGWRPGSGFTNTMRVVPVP

binding result (VIM): binds
binding result (PKM): binds
binding result (HSPA5): binds
binding result [1]: binds
binding result (RNF31): binds
binding result (PRPF31): binds
binding result (XRCC5): binds
binding result (PARP1): binds
binding result (MYH9): binds
B1: Flag-tagged SHARPIN (other, human, UniProt Q9H0F6 1-387, looked up)
chain: MAPPAGGAAAAASDLGSAAVLLAVHAAVRPLGAGPDAEAQLRRLQLSADPERPGRFRLELLGAGPGAVNLEWPLESVSYTIRGPTQHELQPPPGGPGTLSLHFLNPQEAQRWAVLVRGATVEGQNGSKSNSPPALGPEACPVSLPSPPEASTLKGPPPEADLPRSPGNLTEREELAGSLARAIAGGDEKGAAQVAAVLAQHRVALSVQLQEACFPPGPIRLQVTLEDAASAASAASSAHVALQVHPHCTVAALQEQVFSELGFPPAVQRWVIGRCLCVPERSLASYGVRQDGDPAFLYLLSAPREAPATGPSPQHPQKMDGELGRLFPPSLGLPPGPQPAASSLPSPLQPSWSCPSCTFINAPDRPGCEMCSTQRPCTWDPLAAAST
notes: also called Flag-SHARPIN; not shown: FLAG tag
